One block for each substance: values may come before it.
Columns and labels:
[1] = biological target: His-NtCDC48 recombinant protein (Nicotiana tabacum); experiment: SDS-PAGE and immunoblot
[2] = biological target: NtCDC48, endogenous (Nicotiana tabacum (endogenous in cv. Xanthi cell suspensions)); experiment: SDS-PAGE and immunoblot
[3] = biological target: CFP-NtCDC48 (Nicotiana tabacum); experiment: FRET or BRET
[4] = biological target: cytosolic ascorbate peroxidase (cAPX), endogenous (Nicotiana tabacum (endogenous in cv. Xanthi cell suspensions)); experiment: native gel or EMSA

stoichiometry N [1]: 6
Substance: His-NtCDC48 recombinant protein (natural protein)

stoichiometry N [2]: 6
Substance: NtCDC48, endogenous (natural protein)

CFP donor fluorescence lifetime with the acceptor (2.97 ns for the donor alone) [3]: 2.41 ns
Substance: cAPX-YFP (enzyme)

stoichiometry N [4]: 2
Substance: cytosolic ascorbate peroxidase (cAPX), endogenous (enzyme)
